Measured values: article PMC6452516, “Biochemical characterization of three new α-olefin-producing P450 fatty acid decarboxylases with a halophilic property” (Biotechnology for Biofuels, 2019)

Columns and labels:
Experiment in all cases: GC of initial substrate consumption, Michaelis-Menten fit
Details in all cases: 330 μM H2O2 as co-substrate, pH 7.4, 50 mM NaH2PO4, 500 mM NaCl, 10% glycerol, 30 °C, 15–40 nM enzyme
[1] = substrate: CCCCCCCCCCCC(=O)O; type: biochemical, Jeotgalicoccus aerolatus
Description: GC of initial substrate consumption, Michaelis-Menten fit on OleTJH

[2] = substrate: CCCCCCCCCCCC(=O)O; type: biochemical, Lacicoccus qingdaonensis
Description: GC of initial substrate consumption, Michaelis-Menten fit on OleTSQ

[3] = substrate: CCCCCCCCCCCC(=O)O; type: biochemical, Jeotgalicoccus sp. ATCC 8456
Description: GC of initial substrate consumption, Michaelis-Menten fit on OleTJE

B1: OleTJH (Jeotgalicoccus aerolatus) (protein)
chain: MASLKRDKGLDNTLKVMKQGYLYTTNQRNRLNTTVFETKALGGKPFAVVTGKEGAEMFYNNDIVQREGMLPKRIVNTLFGKGAIHTIDGKKHVDRKALFMSLMTEGNLNYVRELTRTLWQANTQRMESMDEVNIYRESIVLLTKVGTRWAGVQAPPEQIERIATDMDIMIDSFKGLGGVFKGYKESKAARRRVEDWLEDQILETRKGNIHPPEGTALYEFAHWEDYLGNPMDSRNCAIDLMNTFRPLIAINRFVSFGLLAMHDNPVSREKIKSEPDYAYKFAQEVRRYYPFVPFLPGKAKTDIDFQGVTIPAGHGLAIDVYGTLHDESLWEDPNEFRPERFEGWDGSPFDLIPQGGGDYWTNHRCAGEWITVIIMEETMKYFAEKVTYDVPEQDLTVDLNSIPGYVKSGFVIKNVQEVVDRR
notes: recombinant, codon-optimized gene in pET28b (NdeI/XhoI), N-terminal His6 tag, E. coli BL21(DE3), Ni-NTA
- Km [1]: 46 ± 15 µM
- kcat [1]: 15.2 ± 1.88 s⁻¹
- kcat/Km [1]: 333000 M⁻¹ s⁻¹

B2: OleTSQ (Lacicoccus qingdaonensis) (protein)
chain: MATIKRDKGLDNSVKVMKQGYLYTTNQRERLGVTDGVFETRALGGKRIIVLSGKDGAELFYDNDKIERSGTLPKRVVNTLFGKGAIHTTTGKVHIDRKALFMSLMTEGNLKYLRELTRNLWFANTQRMESMDQVNVYRESIIVLTKVGTRWAGVQAPEKEIENIATDMDIMIDSFKAIGSAFKGYREAKAARRRVEDWLEDQIIQTRKGKIHPPKGTALYEFAHWKDYKGEPMDSRLCGIDLMNTFRPLIAINRFVAFGALAMYENPVAREKIKQDDDYAYMFAQEVRRFYPFVPYLPAKAKVDFQYKGYEIEKDTMLALDIYGTMHDPNVWEDPNEFYPERFKDWDGSPFDLIPQGGGDYHTNHRCAGEWMTVIIMEETMKYFASRINYDVPEQDLTVDLNSLPGYIKSGFVIENVQENVDRT
notes: as for B1
- Km [2]: 35 ± 10 µM
- kcat [2]: 9.5 ± 0.917 s⁻¹
- kcat/Km [2]: 267000 M⁻¹ s⁻¹

B3: OleTJE (Jeotgalicoccus sp. ATCC 8456) (protein)
chain: MATLKRDKGLDNTLKVLKQGYLYTTNQRNRLNTSVFQTKALGGKPFVVVTGKEGAEMFYNNDVVQREGMLPKRIVNTLFGKGAIHTVDGKKHVDRKALFMSLMTEGNLNYVRELTRTLWHANTQRMESMDEVNIYRESIVLLTKVGTRWAGVQAPPEDIERIATDMDIMIDSFRALGGAFKGYKASKEARRRVEDWLEEQIIETRKGNIHPPEGTALYEFAHWEDYLGNPMDSRTCAIDLMNTFRPLIAINRFVSFGLHAMNENPITREKIKSEPDYAYKFAQEVRRYYPFVPFLPGKAKVDIDFQGVTIPAGVGLALDVYGTTHDESLWDDPNEFRPERFETWDGSPFDLIPQGGGDYWTNHRCAGEWITVIIMEETMKYFAEKITYDVPEQDLEVDLNSIPGYVKSGFVIKNVREVVDRT
notes: purified recombinant P450 from E. coli, His-tagged (Ni-NTA); cloning of this control enzyme not described here
- Km [3]: 41 ± 4 µM
- kcat [3]: 14.3 ± 0.467 s⁻¹
- kcat/Km [3]: 350000 M⁻¹ s⁻¹
